T1: MED16 (mouse (Mus musculus; endogenous in CH12), UniProt Q6PGF3 1-828)
T1 construct: MED16, Mus musculus, endogenous lower Tail subunit of Mediator; source: endogenous, CH12 mouse B lymphoma nuclear extract; immunopurified as part of Mediator (FLAG M2 agarose, FLAG peptide elution)
T1 sequence (looked up): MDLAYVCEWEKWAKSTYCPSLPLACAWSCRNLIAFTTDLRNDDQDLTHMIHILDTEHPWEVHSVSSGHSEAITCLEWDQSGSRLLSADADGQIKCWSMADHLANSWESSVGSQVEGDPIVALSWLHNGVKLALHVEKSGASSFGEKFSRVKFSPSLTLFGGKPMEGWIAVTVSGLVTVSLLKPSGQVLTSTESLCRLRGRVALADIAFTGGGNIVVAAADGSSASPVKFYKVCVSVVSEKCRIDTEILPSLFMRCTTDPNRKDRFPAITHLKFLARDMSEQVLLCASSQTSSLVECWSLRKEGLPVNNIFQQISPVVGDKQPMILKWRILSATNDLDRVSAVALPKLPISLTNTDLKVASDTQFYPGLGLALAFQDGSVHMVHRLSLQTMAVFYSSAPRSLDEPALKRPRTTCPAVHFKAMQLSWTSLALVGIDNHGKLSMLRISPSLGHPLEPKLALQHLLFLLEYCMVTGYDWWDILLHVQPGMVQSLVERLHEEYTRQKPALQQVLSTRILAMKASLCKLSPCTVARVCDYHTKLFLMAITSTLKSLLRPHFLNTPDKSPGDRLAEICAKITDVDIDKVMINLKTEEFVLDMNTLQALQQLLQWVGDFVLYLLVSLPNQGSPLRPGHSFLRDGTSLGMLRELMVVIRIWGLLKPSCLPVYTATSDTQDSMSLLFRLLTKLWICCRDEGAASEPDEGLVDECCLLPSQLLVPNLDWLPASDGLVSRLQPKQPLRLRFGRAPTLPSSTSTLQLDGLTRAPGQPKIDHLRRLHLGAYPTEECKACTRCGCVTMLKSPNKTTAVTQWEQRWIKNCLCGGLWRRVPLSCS

T2: MED15 (mouse (Mus musculus; endogenous in CH12), UniProt Q924H2 1-789)
T2 construct: MED15, Mus musculus, endogenous lower Tail subunit of Mediator; only the C-terminal portion (from residue 620) is seen in the map; source: endogenous, CH12 mouse B lymphoma nuclear extract; immunopurified as part of Mediator (FLAG M2 agarose, FLAG peptide elution)
T2 sequence (looked up): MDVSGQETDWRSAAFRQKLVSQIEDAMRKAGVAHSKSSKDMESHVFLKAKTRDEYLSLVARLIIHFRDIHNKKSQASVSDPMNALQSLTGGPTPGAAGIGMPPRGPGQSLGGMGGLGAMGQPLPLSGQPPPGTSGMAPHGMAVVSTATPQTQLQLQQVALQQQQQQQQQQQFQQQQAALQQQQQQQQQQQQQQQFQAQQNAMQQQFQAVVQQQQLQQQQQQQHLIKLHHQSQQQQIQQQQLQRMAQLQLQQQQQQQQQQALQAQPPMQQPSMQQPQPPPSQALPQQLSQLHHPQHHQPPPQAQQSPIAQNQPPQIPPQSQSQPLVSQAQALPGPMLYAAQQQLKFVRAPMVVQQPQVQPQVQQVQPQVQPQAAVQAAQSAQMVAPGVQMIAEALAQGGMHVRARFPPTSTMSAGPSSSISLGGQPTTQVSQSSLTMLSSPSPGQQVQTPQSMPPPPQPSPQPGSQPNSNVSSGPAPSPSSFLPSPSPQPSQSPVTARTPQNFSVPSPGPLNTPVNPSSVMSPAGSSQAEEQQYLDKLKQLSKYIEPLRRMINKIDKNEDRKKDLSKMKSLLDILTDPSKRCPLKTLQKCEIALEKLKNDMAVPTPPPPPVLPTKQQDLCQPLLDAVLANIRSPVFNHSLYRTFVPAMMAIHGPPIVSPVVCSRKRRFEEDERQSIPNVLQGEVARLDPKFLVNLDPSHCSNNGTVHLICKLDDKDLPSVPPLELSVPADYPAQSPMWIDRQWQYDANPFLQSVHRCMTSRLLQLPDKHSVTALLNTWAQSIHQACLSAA

B1: MED27 (natural protein, mouse (Mus musculus; endogenous in CH12), UniProt Q9DB40 1-311, looked up)
chain: MADVLSVGVNLEAFSQAISAIQALRSSVSRVFDCLKDGMRNKETLEGREKAFIANFQDNLHSVNRDLNELERLSNLVGKPSENHPLHNSGLLSLDPVQDKTPLYSQLLQAYKWSNKLQYHAGLASGLLNQQSLKRSANQMGVSAKRRPKAQPTTLVLPPQYVDDVISRIDRMFPEMSIHLSRPNGTSAMLLVTLGKVLKVIVVMRSLFIDRTIVKGYNESVYTEDGKLDIWSKSSYQVFQKVTDHATTALLHYQLPQMPDVVVRSFMTWLRSYIKLFQAPCQRCGKFLQDGLPPTWRDFRTLEAFHDTCRQ
notes: MED27, Mus musculus, endogenous upper Tail subunit of Mediator; source: endogenous, CH12 mouse B lymphoma nuclear extract; immunopurified as part of Mediator (FLAG M2 agarose, FLAG peptide elution)
B2: MED17 (natural protein, mouse (Mus musculus; endogenous in CH12), UniProt Q8VCD5 1-649, looked up)
chain: MSGVRAVRISIESACEKQVQEVGLDGTETYLQPLSMSQNLARLAQRIDFSQGSGSEEEEAAGPDGDAPDWGGAGADQDDEEGLVKFQPSLWPWDSVRNNLRSALTEMCVLYDVLSIVRDKKFMTLDPVSQDALPPKQSPQTLQLISKKKSLAGAAQILLKGAERLTKSVAENQENKLQRDFNSELLRLRQHWKLRKVGDKILGDLSYRSAGSLFPHHGTFEVIKNTDIDLDKKIPEDYCPLDVQIPSDLEGSAYIKVSIQKQAPDIGDLGTVNLFKRPLPKSKPGSPHWQTKLEAAQNVLLCKEIFAQLSREAVQIKSQIPHIVVKNQIISQPFPSLQLSISLCHSSDDKKSQKCAAEKPGQEDHLYVLEHNLHLLIREFHKQTLSSIVMPHPASAPFGHKRMRLSGPQAFDKNEINSIQSTEGLLEKIIKQAKHIFLRSRTAATIDSLASRIEDPQIQAHWSNINDVYESSVKVLITSQGYEQICKSIQLQLNIGVEQVRVVHRDGRVIMLSHQEQELQDFLLSQMSQHQVHAVQQLAKVMGWQVLSFSNHVGLGPIESIGNASAITVASPSGDYAISVRNGPESGSKIMVQFPRNQCKDLPKSDVLQDSKWSHLRGPFKEVQWNKMEGRNFVYKMELLMSALSPCLL
notes: MED17, Mus musculus, endogenous Head module scaffold subunit of Mediator; source: endogenous, CH12 mouse B lymphoma nuclear extract; immunopurified as part of Mediator (FLAG M2 agarose, FLAG peptide elution)

Tests used:
Assay in all cases: cryo-EM structure; endogenous mouse Mediator immunopurified from CH12 nuclear extract through 3×FLAG-MED19 or 3×FLAG-MED25; eluted in 50 mM HEPES pH 7.9, 100 mM KCl, 5% glycerol, 1 mM EDTA, 0.005% NP-40; map at 4.0 Å overall, focused refinement of the MED1 and knob/hook ends (6-10 Å)
Settings in all cases: both partners purified
MED16 = target: T1, MED16
MED27 = target: B1
MED15 = target: T2, MED15
MED1 = target: T3, MED1 (mouse (Mus musculus; endogenous in CH12), UniProt Q925J9 1-1575)
T3 construct: MED1, Mus musculus, endogenous Middle module subunit of Mediator; only a partial model of the folded N-terminal portion was built; Partial model only; this part of the map is at about 6-8 Å; also called Mediator subunit MED1; source: endogenous, CH12 mouse B lymphoma nuclear extract; immunopurified as part of Mediator (FLAG M2 agarose, FLAG peptide elution)
T3 sequence (Q925J9 whole entry): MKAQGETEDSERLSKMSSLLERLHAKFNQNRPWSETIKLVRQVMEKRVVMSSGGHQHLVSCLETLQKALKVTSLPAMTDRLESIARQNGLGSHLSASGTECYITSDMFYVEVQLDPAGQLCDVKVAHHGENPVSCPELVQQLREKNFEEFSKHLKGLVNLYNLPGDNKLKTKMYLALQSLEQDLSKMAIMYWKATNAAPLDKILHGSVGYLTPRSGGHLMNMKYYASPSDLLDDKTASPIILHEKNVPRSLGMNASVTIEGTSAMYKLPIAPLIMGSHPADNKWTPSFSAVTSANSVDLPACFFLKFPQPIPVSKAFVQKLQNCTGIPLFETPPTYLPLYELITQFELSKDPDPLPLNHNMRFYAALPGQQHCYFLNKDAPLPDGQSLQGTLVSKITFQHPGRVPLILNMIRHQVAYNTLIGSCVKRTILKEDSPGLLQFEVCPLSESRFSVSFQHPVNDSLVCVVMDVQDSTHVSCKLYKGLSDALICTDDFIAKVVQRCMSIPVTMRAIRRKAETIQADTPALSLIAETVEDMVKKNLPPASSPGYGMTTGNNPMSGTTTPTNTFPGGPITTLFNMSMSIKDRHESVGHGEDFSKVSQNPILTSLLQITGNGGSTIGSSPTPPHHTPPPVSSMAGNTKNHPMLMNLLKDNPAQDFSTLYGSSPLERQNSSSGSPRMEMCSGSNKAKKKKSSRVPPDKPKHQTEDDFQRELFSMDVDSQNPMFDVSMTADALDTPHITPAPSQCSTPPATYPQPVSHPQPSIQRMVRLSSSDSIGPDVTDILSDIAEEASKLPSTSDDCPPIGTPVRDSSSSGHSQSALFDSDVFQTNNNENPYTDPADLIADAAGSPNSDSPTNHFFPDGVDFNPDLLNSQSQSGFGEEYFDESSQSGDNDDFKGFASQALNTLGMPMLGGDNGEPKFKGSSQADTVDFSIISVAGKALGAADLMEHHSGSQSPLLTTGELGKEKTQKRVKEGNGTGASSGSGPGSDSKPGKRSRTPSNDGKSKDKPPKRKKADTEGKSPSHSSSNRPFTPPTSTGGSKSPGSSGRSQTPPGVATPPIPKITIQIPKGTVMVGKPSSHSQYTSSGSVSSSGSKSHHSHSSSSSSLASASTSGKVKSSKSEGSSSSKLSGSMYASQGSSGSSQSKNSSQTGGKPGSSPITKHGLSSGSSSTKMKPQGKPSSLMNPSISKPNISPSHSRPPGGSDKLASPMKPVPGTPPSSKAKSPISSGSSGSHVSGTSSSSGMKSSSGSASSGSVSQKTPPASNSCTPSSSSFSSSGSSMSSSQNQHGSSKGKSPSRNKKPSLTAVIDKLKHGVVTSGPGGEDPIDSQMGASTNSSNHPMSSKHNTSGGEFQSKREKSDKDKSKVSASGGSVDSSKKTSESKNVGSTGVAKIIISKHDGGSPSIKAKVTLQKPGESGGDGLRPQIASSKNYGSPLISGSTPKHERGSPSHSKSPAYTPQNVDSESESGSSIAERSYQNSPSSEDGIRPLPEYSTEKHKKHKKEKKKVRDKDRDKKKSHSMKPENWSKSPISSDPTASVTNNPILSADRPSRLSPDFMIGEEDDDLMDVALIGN

MED17 = target: B2

| binding result (MED16) | binding result (MED27) | binding result (MED15) | binding result (MED1) | binding result (MED17) | Binder |
| --- | --- | --- | --- | --- | --- |
| binds | binds | binds |  |  | MED29 (natural protein, mouse (Mus musculus; endogenous in CH12), UniProt Q9DB91 1-199, looked up, MED29, Mus musculus, endogenous upper Tail subunit of Mediator; source: endogenous, CH12 mouse B lymphoma nuclear extract; immunopurified as part of Mediator (FLAG M2 agarose, FLAG peptide elution)) MAAPQPQAAAVSSASGVSGPGSAGGPGPQQQPQPTQLVGSAQSGLLQQQQQDFDPVQRYKMLIPQLKESLQTLMKVAAQNLIQNTNIDNGQKSSDAPLQRFDKCLEEFYALCDQLELCLRLAHECLSQSCDSAKHSPTLVPTATKPDAVQPDSLPYPQYLAVIKAQITCAKDIHTALLDCANKVTGKTTAPSTGPGGSL |
|  |  |  | binds |  | MED24 (natural protein, mouse (Mus musculus; endogenous in CH12), UniProt Q99K74 1-987, looked up, MED24, Mus musculus, endogenous lower Tail subunit of Mediator; source: endogenous, CH12 mouse B lymphoma nuclear extract; immunopurified as part of Mediator (FLAG M2 agarose, FLAG peptide elution)) MKVVNLKQAILQAWKERWSDYQWAINMKKFFPKGATWDILNLAEALLEQAMIGPSPNPLILSYLKYAISSQMVSCSSVLTAISKFDDFSRDLCVQALLDIMDMFCDRLSCHGKAEECIGLCRALLSALHWLLRCTAASAERLQEGLEAGTPAPGEKQLALCLQCLEKTLSSTKNRALLHIAKLEEASSWTAIEHSLLKLGEILANLSNPQLRSQAERCGTLIRSIPSMLSVHSEQLHKTGFPTIHALILLEGTMNLTGEMQPLVEQLMMVKRMQHIPTPLFVLEIWKACFVGLIESPEGTQELKWTAFTYLKIPQVLVKLKKYFHGEKDFTEDVNCAFEFLLKLTPLLDKADQRCNCDCTNFLLQECNKQGLLSEVNFASLVGKRTADRDPQLKSSENANIQPNPGLILRAEPTVTNILKTMDADHSKSPEGLLGVLGHMLSGKSLDLLLAAAAATGKLKSFARKFINLNEFTTHGSGESTKTASVRALLFDISFLMLCHVAQTYGSEVILSESSSGEEVPFFETWMQTCMPEEGKILNPDHPCFRPDSTKVESLVALLNNSSEMKLVQMKWHEACLSISAAILEILNAWENGVLAFESIQKITDNIKGKVCSLAVCAVAWLVAHVRMLGLDEREKSLQMIRQLAGPLYSENTLQFYNERVVIMNSILEHMCADVLQQTATQIKFPSTGVDTMPYWNLLPPKRPIKEVLTDIFAKVLEKGWVDSRSIHILDTLLHMGGVYWFCNNLIKELLKETRKEHTLRAVQLLYSIFCLDMQQVTLVLLGHILPGLLTDSSKWHSLMDPPGTALAKLAVWCALSSYSSHKGQASSRQKKRHREDIEDYVSLFPVEDMQPSKLMRLLSSSDDDANILSSPTDRSMNSSLSASQLHTVNMRDPLNRVLANLFLLISSILGSRTAGPHTQFVQWFMEECVGCLEQDSRGSILQFMPFTTVSELVKVSAMSSPKVVLAITDLSLPLGRQVAAKAIAAL |
| binds |  | binds |  | binds | B1 |
|  |  | binds |  |  | B2 |

— PMC7921410, “Structure of mammalian Mediator complex reveals Tail module architecture and interaction with a conserved core” (Nature Communications, 2021)
